# How the values were obtained:
# [1] = target: HLA-A3 molecule on the T2-A3 cell line; test: T2-A3 MHC stabilisation, w6/32 indirect immunofluorescence, flow cytometry; peptide at 100 uM
# [2] = target: HLA-A3 molecule on the T2-A3 cell line; test: T2-A3 MHC stabilisation, w6/32 indirect immunofluorescence, flow cytometry; peptide at 10 uM
# [3] = target: HLA-A3 molecule on the T2-A3 cell line; test: T2-A3 MHC stabilisation, w6/32 indirect immunofluorescence, flow cytometry; peptide at 1 uM
Binder,"Expression of MHC (FR), fluorescence ratio [1]","Expression of MHC (FR), fluorescence ratio [2]","Expression of MHC (FR), fluorescence ratio [3]"
"VLYYDFWSGY [HLA-A3 (1-10) peptide, based on CDR-H3 positions 1-10 of 105AD7]",1.8,1.8,1.2
"DFWSGYLEY [HLA-A3 (5-13) peptide, based on CDR-H3 positions 5-13 of 105AD7]",1.3,1.3,1.8
